One may read the EC50 as the concentration giving half of the maximal effect. What is called EC50 (read off the curve) is the concentration at which the effect is half-maximal.

Assay [1] has as its target T1, MAGEA3 (human, UniProt P43357 1-314).
T1 construct: also called recombinant MAGEA3; MAGEA3-protein
In words: ELISA, plate coated with recombinant MAGEA3, serial dilution of antibody [Figure 4]. In general terms: ELISA stands for enzyme-linked immunosorbent assay.

A further assay has as its target T2, MAGEA3 peptide no 17.
T2 construct: also called MAGEA3 aa 161-180
T2 peptide: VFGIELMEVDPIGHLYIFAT
The experiment in a line: peptide ELISA (coated 20mer) [Figure 1]. Here is the method: (§1) 20mer peptides spanning the entire MAGEA3 protein with 10 aa overlaps shared by each adjacent peptide (Peptides&Elephants, Nuthetal, Germany) were used to coat Maxisorp ELISA plates (Nunc, Rochester, N.Y.). As control a 20mer peptide representing amino acids 40-21 from the NY-ESO-1 protein was used (rev). The numbering of amino acids of MAGEA3 is based on SEQ ID No:41.
(§2) Human recombinant antibody was used at a concentration of 1 μg/ml. Bound human antibody was detected using horseradish peroxidase-conjugated goat anti-human IgG Fc-gamma specific antibodies (Jackson ImmunoResearch, Europe Ltd., Cambridgeshire, UK).

The target of assay [2] is T3, MAGEA3 peptide no 13.
T3 construct: also called MAGEA3 aa 121-140
T3 peptide: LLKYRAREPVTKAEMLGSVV
The experiment in a line: peptide ELISA (coated 20mer) [Figure 1]. The procedure:
as §1, §2

The target of another assay is T4, MAGEA3 peptide no 27.
T4 construct: also called MAGEA3 aa 261-280
T4 peptide: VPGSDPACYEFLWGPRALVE
The experiment in a line: peptide ELISA (coated 20mer) [Figure 1]. Here is the method:
as §1, §2

Assay [3] addresses T5, MAGEA3 peptide no 18.
T5 construct: also called MAGEA3 aa 171-190
T5 peptide: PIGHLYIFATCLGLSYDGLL
In words: peptide ELISA (coated 20mer) [Figure 1]. Here is the method:
as §1, §2

The target in assay [4] is T6, MAGEA3 peptide no 6.
T6 construct: also called MAGEA3 aa 51-70
T6 peptide: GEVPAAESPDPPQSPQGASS
In words: peptide ELISA (coated 20mer) [Figure 1]. Here is the method: as §1, §2

The target of assay [5] is T7, MAGEA3 peptide no 3.
T7 construct: also called MAGEA3 aa 21-40
T7 peptide: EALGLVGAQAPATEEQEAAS
The experiment in a line: peptide ELISA (coated 20mer) [Figure 1]. The procedure: as §1, §2

Assay [6] deals with T8, MAGEA3 peptide no 10.
T8 construct: also called MAGEA3 aa 91-110
T8 peptide: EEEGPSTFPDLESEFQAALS
In words: peptide ELISA (coated 20mer) [Figure 1]. The procedure: as §1, §2

The target of another assay is T9, MAGEA3 peptide no 30.
T9 construct: also called MAGEA3 aa 291-310
T9 peptide: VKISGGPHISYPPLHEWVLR
In words: peptide ELISA (coated 20mer) [Figure 1]. Here is the method: as §1, §2

Assay [7] addresses T10, MAGEA3 peptide no 22.
T10 construct: also called MAGEA3 aa 211-230
T10 peptide: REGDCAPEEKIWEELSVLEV
In words: peptide ELISA (coated 20mer) [Figure 1]. Here is the method:
as §1, §2

The target of assay [8] is T11, MAGEA3 peptide no 5.
T11 construct: also called MAGEA3 aa 41-60
T11 peptide: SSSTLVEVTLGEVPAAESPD
The experiment in a line: ELISA on plate-coated 20mer peptide, antibody at 1 µg/ml, anti-human IgG Fc-HRP [Figure 1]. The procedure: as §1, §2

Assay [9] deals with T11, MAGEA3 peptide no 5. The experiment in a line: peptide ELISA (coated 20mer) [Figure 1]. Here is the method: as §1, §2
Assay [10] addresses T6, MAGEA3 peptide no 6. The experiment in a line: ELISA on plate-coated 20mer peptide, antibody at 1 µg/ml, anti-human IgG Fc-HRP [Figure 1]. Here is the method: as §1, §2
The next assay deals with T12, MAGEA3 peptide no 8.
T12 construct: also called MAGEA3 aa 71-90
T12 peptide: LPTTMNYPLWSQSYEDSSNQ
In words: peptide ELISA (coated 20mer). The procedure:
as §1, §2

A further assay deals with T13, MAGEA3 peptide no 21.
T13 construct: also called MAGEA3 aa 201-220
T13 peptide: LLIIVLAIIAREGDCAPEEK
In words: peptide ELISA (coated 20mer). Here is the method:
as §1, §2

In the next assay the target is T14, MAGEA3 peptide no 28.
T14 construct: also called MAGEA3 aa 271-290
T14 peptide: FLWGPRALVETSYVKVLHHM
The experiment in a line: peptide ELISA (coated 20mer). The procedure:
as §1, §2

The target in assay [11] is T3, MAGEA3 peptide no 13. In words: peptide ELISA (coated 20mer). Here is the method: as §1, §2
For assay [12], the target named is T5, MAGEA3 peptide no 18. In words: peptide ELISA (coated 20mer). Here is the method: as §1, §2
In another assay the target is T15, MAGEA3 peptide no 9.
T15 construct: also called MAGEA3 aa 81-100
T15 peptide: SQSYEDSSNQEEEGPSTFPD
The experiment in a line: peptide ELISA (coated 20mer). The procedure:
as §1, §2

A further assay addresses T16, MAGEA3 peptide no 15.
T16 construct: also called MAGEA3 aa 141-160
T16 peptide: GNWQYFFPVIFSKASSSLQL
In words: peptide ELISA (coated 20mer). The procedure: as §1, §2

Assay [13] concerns the target T7, MAGEA3 peptide no 3. In words: peptide ELISA (coated 20mer). Here is the method:
as §1, §2

For assay [14], the target named is T8, MAGEA3 peptide no 10. The experiment in a line: peptide ELISA (coated 20mer). The procedure: as §1, §2
The target in a further assay is T17, MAGEA3 peptide no 16.
T17 construct: also called MAGEA3 aa 151-170
T17 peptide: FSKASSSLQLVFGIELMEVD
In words: peptide ELISA (coated 20mer). The procedure:
as §1, §2

The next assay deals with T18, MAGEA3 peptide no 1.
T18 construct: also called MAGEA3 aa 1-20
T18 peptide: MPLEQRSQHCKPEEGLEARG
The experiment in a line: peptide ELISA (coated 20mer). The procedure:
as §1, §2

The target of another assay is T19, MAGEA3 peptide no 31.
T19 construct: also called MAGEA3 aa 295-314
T19 peptide: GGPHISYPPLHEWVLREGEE
The experiment in a line: peptide ELISA (coated 20mer). The procedure:
as §1, §2

The target of assay [15] is T10, MAGEA3 peptide no 22. In words: peptide ELISA (coated 20mer). The procedure:
as §1, §2

The next assay deals with T20, MAGEA3 peptide no 14.
T20 construct: also called MAGEA3 aa 131-150
T20 peptide: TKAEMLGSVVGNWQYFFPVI
In words: peptide ELISA (coated 20mer). Here is the method:
as §1, §2

Assay [16] has as its target T1, MAGEA3. The experiment in a line: ELISA, plate coated with recombinant MAGEA3, serial dilution of antibody.

B1: 102G10 (antibody, V domains shown)
VH: EVQLVESGGGLVKPGGSLRLSCAASGFTFSGNSMNWVRQAPGKGLEWVSSISSSSGYIYYADSVKGRFTVSRDNAKNSLYLQMNSLRAEDTAVYYCATWPVTTARVGYWGQGTLVTVSS
VL: QSVLTQPPSASGTPGQRVTISCSGSSSNIGSNYVYWHQQLPGTAPKLLIYRHDQRPSGVPDRFSGSKSGTSASLAISGLRSEDEADYYCAAWDDSLSAWVFGGGTKLTVL
notes: Patient-derived human antibody made recombinantly; also called human monoclonal antibody 102G10
For the molecule B1, the EC50 with MAGEA3 [1] worked out at 0.034 nM. Further, the binding result with MAGEA3 peptide no 17, with MAGEA3 peptide no 13 [2], with MAGEA3 peptide no 27, in the assay with MAGEA3 peptide no 18 [3], with MAGEA3 peptide no 6 [4] and with MAGEA3 peptide no 3 [5] was “no binding (tested: 1 µg/ml)” each time. Besides, the binding result is listed as “no binding (tested: 1 µg/ml)” in the assay with MAGEA3 peptide no 10 [6], “no binding (tested: 1 µg/ml)” with MAGEA3 peptide no 30, “no binding (tested: 1 µg/ml)” with MAGEA3 peptide no 22 [7] and “binds” with MAGEA3 peptide no 5 [8].

B2: 34G9 (antibody, V domains shown)
VH: EVQLEESGGDLVQPGGSLRLSCAASGFTFSHYWMHWVRQAPGKGLVWVSRINSDGSSTSYADSVKGRFTISRDNAKNTLYLQMNSLRAEDTAVYYCARIGSDGYNYDFWGQGTLVTVSS
VL: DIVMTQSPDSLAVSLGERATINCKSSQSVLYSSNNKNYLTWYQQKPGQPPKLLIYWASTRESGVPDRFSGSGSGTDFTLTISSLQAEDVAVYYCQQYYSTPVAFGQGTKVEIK
notes: Patient-derived human antibody made recombinantly; also called human monoclonal antibody 34G9
As for B2, the binding result with MAGEA3 peptide no 5 [9], with MAGEA3 peptide no 17, with MAGEA3 peptide no 13 [2], in the assay with MAGEA3 peptide no 27, with MAGEA3 peptide no 18 [3] and with MAGEA3 peptide no 3 [5] was “no binding (tested: 1 µg/ml)” in each case. Besides, the binding result with MAGEA3 peptide no 10 [6] is recorded as “no binding (tested: 1 µg/ml)”; with MAGEA3 peptide no 30, “no binding (tested: 1 µg/ml)”; with MAGEA3 peptide no 22 [7] it was “no binding (tested: 1 µg/ml)”; with MAGEA3 peptide no 6 [10], “binds”.

B3: 32H2 (antibody, V domains shown)
VH: QVQLVESGGGVVQPGRSLRLSCAASGFTFSSNAMHWVRQAPGKGLEWVAVISHDGSNKYYADSVKGRFTISRDNSKNTLYLQMNSLRAEDTAVYYCARDGSGSYFNLDYWGQGTLVTVSS
VL: QSALTQPASVSGSPGQSITISCTGTSSDVGGYNYVSWYQQHPGKAPKLMIYEVSNRPSGVSNRFSGSKSGNTASLTISGLQAEDEADYYCSSYTSSSTLVFGTGTKVTVL
notes: Patient-derived human antibody made recombinantly; also called human monoclonal antibody 32H2
For the molecule B3, the binding result with MAGEA3 peptide no 8, in the assay with MAGEA3 peptide no 21, with MAGEA3 peptide no 28, with MAGEA3 peptide no 13 [11], in the assay with MAGEA3 peptide no 18 [12] and in the assay with MAGEA3 peptide no 9 was “no binding (tested: 1 µg/ml)” each time. Moreover, the binding result in the assay with MAGEA3 peptide no 15, in the assay with MAGEA3 peptide no 3 [13], in the assay with MAGEA3 peptide no 10 [14], in the assay with MAGEA3 peptide no 16, with MAGEA3 peptide no 1 and with MAGEA3 peptide no 31 was “no binding (tested: 1 µg/ml)” each time. In addition, the binding result with MAGEA3 peptide no 22 [15] and with MAGEA3 peptide no 14 was “no binding (tested: 1 µg/ml)” in each case. In addition, in the assay with MAGEA3 [16], the EC50 was determined as 0.033 nM. For the same molecule, in the assay with MAGEA3 [16], the “EC50 (read off the curve)” value was about 0.03 nM.

The record behind these values is patent publication US20140186363A1 (UNIVERSITY OF ZURICH, published 2014).
